# Source: IntAct's records for PubMed 35512704
# B1: Mothers against decapentaplegic homolog 4 (Homo sapiens), Q13485 (parent)
# chain: MDNMSITNTPTSNDACLSIVHSLMCHRQGGESETFAKRAIESLVKKLKEKKDELDSLITAITTNGAHPSKCVTIQRTLDGRLQVAGRKGFPHVIYARLWRWPDLHKNELKHVKYCQYAFDLKCDSVCVNPYHYERVVSPGIDLSGLTLQSNAPSSMMVKDEYVHDFEGQPSLSTEGHSIQTIQHPPSNRASTETYSTPALLAPSESNATSTANFPNIPVASTSQPASILGGSHSEGLLQIASGPQPGQQQNGFTGQPATYHHNSTTTWTGSRTAPYTPNLPHHQNGHLQHHPPMPPHPGHYWPVHNELAFQPPISNHPAPEYWCSIAYFEMDVQVGETFKVPSSCPIVTVDGYVDPSGGDRFCLGQLSNVHRTEAIERARLHIGKGVQLECKGEGDVWVRCLSDHAVFVQSYYLDREAGRAPGDAVHKIYPSAYIKVFDLRQCHRQMQQQAATAQAAAAAQAAAVAGNIPGPGSVGGIAPAISLSAAAGIGVDDLRRLCILRMSFVKGWGPDYPRQSIKETPCWIEIHLHRALQLLDEVLHTMPIADPQPLD
# Variants of: B1
# Settings: with ros1_human ROS1, P08922
# Chain of ros1_human ROS1, P08922 (P08922 whole entry): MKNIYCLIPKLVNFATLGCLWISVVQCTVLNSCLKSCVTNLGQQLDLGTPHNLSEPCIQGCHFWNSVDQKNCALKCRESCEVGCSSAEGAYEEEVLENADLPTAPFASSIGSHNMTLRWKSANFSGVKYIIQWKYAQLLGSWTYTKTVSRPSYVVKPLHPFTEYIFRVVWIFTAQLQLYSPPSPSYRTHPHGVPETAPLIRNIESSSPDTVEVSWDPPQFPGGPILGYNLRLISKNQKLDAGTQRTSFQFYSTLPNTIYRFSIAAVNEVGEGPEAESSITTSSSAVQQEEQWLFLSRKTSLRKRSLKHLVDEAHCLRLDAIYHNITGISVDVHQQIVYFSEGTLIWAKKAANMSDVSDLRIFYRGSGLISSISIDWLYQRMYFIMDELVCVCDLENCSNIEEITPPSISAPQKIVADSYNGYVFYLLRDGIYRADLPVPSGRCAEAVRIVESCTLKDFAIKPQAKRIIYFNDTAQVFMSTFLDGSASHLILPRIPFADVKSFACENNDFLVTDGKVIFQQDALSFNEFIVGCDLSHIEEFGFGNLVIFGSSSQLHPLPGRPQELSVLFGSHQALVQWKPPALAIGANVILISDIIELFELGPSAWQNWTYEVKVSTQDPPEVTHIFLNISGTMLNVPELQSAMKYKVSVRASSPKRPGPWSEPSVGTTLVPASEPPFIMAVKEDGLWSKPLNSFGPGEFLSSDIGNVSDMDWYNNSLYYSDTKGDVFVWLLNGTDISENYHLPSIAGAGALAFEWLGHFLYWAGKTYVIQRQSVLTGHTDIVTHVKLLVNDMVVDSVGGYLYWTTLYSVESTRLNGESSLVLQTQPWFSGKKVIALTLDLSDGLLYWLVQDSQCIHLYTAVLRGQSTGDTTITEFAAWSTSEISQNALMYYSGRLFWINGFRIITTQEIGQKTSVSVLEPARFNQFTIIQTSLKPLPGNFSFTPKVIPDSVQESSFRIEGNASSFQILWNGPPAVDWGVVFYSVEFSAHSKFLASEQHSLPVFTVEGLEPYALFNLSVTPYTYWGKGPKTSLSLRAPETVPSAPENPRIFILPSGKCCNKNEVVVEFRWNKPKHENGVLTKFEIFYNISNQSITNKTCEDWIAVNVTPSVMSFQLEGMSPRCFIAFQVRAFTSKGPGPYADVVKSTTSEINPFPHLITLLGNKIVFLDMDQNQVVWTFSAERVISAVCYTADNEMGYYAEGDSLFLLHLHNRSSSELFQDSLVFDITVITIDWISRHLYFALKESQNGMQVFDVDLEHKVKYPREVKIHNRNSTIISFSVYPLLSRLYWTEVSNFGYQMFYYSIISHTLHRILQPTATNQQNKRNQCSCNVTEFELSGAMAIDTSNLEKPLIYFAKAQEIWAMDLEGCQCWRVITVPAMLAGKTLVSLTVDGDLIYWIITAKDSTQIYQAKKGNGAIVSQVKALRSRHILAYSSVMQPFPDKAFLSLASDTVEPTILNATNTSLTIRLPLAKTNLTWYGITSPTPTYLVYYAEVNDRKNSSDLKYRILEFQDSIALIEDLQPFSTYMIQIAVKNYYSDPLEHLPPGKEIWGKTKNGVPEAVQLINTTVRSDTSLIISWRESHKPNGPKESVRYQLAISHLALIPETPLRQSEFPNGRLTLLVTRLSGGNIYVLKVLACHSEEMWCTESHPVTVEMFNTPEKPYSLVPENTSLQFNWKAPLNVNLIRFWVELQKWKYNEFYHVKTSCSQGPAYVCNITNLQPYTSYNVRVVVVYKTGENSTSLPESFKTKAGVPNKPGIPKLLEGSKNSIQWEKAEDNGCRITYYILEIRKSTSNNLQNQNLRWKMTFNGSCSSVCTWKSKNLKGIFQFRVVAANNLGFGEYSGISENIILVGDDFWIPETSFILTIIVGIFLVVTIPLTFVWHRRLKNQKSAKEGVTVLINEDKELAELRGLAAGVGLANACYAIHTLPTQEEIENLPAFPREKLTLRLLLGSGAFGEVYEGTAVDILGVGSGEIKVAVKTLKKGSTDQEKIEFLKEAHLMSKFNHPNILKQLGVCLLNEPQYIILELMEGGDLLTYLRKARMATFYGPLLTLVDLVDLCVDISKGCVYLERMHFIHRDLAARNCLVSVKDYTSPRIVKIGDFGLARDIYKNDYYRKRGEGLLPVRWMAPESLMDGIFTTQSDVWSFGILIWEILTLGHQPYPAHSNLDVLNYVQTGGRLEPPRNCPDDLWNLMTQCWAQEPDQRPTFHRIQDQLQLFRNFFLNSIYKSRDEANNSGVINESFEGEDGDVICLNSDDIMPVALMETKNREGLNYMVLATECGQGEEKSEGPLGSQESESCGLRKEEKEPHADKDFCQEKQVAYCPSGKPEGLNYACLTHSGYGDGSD
row,Variant,effect of a mutation on the interaction
1,R361C,with no effect

# Variants of: B1
# Settings: with ks6b1_human RPS6KB1, P23443
row,Variant,effect of a mutation on the interaction
1,R361C,with no effect

# Variants of: B1
# Settings: with runx1_human RUNX1, Q01196
row,Variant,effect of a mutation on the interaction
1,R361C,with no effect

# Variants of: B1
# Settings: with ruvb1_human RUVBL1, Q9Y265
row,Variant,effect of a mutation on the interaction
1,R361C,with no effect

# Variants of: B1
# Settings: with rxra_human RXRA
row,Variant,effect of a mutation on the interaction
1,R361C,with no effect

# Variants of: B1
# Settings: with sdha_human SDHA
row,Variant,effect of a mutation on the interaction
1,R361C,with no effect

# Variants of: B1
# Settings: with setb1_human SETDB1, Q15047
row,Variant,effect of a mutation on the interaction
1,R361C,with no effect

# Variants of: B1
# Settings: with sf3b1_human SF3B1, O75533
row,Variant,effect of a mutation on the interaction
1,R361C,with no effect

# Variants of: B1
# Settings: with skp2_human SKP2, Q13309
row,Variant,effect of a mutation on the interaction
1,R361C,with no effect

# Variants of: B1
# Settings: with smad1_human SMAD1, Q15797
row,Variant,effect of a mutation on the interaction
1,R361C,with no effect

# Variants of: B1
# Settings: with smad2_human SMAD2, Q15796
row,Variant,effect of a mutation on the interaction
1,R361C,with no effect

# Variants of: B1
# Settings: with smad3_human SMAD3, P84022
# Chain of smad3_human SMAD3, P84022 (P84022 whole entry, looked up): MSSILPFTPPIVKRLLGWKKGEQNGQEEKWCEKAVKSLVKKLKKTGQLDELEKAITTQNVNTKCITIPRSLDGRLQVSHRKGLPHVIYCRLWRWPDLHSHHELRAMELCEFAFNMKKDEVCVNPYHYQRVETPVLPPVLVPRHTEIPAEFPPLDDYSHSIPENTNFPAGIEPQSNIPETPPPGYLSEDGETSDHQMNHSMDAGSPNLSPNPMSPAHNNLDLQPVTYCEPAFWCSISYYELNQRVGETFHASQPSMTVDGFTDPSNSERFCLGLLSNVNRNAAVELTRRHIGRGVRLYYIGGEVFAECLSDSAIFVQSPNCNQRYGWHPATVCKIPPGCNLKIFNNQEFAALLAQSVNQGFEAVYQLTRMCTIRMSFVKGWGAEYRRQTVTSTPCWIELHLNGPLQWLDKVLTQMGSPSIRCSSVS
row,Variant,effect of a mutation on the interaction
1,R361C,with no effect

# Variants of: B1
# Settings: with smca4_human SMARCA4, P51532
row,Variant,effect of a mutation on the interaction
1,R361C,with no effect

# Variants of: B1
# Settings: with snf5_human SMARCB1, Q12824
row,Variant,effect of a mutation on the interaction
1,R361C,with no effect

# Variants of: B1
# Settings: with smo_human SMO
row,Variant,effect of a mutation on the interaction
1,R361C,with no effect

# Variants of: B1
# Settings: with socs1_human SOCS1, O15524
row,Variant,effect of a mutation on the interaction
1,R361C,with no effect

# Variants of: B1
# Settings: with sox10_human SOX10, P56693
# Chain of sox10_human SOX10, P56693 (P56693 whole entry): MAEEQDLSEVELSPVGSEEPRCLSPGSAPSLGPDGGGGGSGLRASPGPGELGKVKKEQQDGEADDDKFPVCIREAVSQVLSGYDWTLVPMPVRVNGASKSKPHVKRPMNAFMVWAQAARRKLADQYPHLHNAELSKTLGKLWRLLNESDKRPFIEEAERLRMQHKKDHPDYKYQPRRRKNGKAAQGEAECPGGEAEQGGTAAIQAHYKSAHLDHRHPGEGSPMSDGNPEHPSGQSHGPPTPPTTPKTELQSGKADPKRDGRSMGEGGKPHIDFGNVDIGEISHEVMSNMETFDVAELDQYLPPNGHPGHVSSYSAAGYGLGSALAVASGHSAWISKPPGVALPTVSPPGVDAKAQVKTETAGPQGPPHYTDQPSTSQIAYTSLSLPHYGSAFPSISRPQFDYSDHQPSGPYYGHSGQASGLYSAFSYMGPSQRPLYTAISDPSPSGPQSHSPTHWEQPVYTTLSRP
row,Variant,effect of a mutation on the interaction
1,R361C,with no effect

# Variants of: B1
# Settings: with sox2_human SOX2, P48431
row,Variant,effect of a mutation on the interaction
1,R361C,with no effect

# Variants of: B1
# Settings: with sox3_human SOX3, P41225
# Chain of sox3_human SOX3, P41225 (P41225 whole entry): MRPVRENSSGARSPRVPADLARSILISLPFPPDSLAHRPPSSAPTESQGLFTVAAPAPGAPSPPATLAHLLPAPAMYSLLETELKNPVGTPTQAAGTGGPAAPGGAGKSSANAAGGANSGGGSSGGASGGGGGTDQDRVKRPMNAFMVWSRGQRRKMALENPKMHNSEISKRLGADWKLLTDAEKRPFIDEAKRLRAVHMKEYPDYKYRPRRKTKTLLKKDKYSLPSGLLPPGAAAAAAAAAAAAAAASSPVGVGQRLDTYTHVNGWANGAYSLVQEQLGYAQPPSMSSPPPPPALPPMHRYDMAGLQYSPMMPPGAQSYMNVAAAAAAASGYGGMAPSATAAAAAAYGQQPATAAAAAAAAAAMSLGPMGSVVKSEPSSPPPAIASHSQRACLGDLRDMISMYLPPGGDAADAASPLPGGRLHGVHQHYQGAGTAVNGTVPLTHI
row,Variant,effect of a mutation on the interaction
1,R361C,with no effect

# Variants of: B1
# Settings: with sox4_human SOX4, Q06945
row,Variant,effect of a mutation on the interaction
1,R361C,with no effect

# Variants of: B1
# Settings: with sox9_human SOX9, P48436
row,Variant,effect of a mutation on the interaction
1,R361C,with no effect

# Variants of: B1
# Settings: with spop_human SPOP
row,Variant,effect of a mutation on the interaction
1,R361C,with no effect

# Variants of: B1
# Settings: with src_human SRC
row,Variant,effect of a mutation on the interaction
1,R361C,with no effect

# Variants of: B1
# Settings: with stat3_human STAT3, P40763
# Chain of stat3_human STAT3, P40763 (P40763 whole entry): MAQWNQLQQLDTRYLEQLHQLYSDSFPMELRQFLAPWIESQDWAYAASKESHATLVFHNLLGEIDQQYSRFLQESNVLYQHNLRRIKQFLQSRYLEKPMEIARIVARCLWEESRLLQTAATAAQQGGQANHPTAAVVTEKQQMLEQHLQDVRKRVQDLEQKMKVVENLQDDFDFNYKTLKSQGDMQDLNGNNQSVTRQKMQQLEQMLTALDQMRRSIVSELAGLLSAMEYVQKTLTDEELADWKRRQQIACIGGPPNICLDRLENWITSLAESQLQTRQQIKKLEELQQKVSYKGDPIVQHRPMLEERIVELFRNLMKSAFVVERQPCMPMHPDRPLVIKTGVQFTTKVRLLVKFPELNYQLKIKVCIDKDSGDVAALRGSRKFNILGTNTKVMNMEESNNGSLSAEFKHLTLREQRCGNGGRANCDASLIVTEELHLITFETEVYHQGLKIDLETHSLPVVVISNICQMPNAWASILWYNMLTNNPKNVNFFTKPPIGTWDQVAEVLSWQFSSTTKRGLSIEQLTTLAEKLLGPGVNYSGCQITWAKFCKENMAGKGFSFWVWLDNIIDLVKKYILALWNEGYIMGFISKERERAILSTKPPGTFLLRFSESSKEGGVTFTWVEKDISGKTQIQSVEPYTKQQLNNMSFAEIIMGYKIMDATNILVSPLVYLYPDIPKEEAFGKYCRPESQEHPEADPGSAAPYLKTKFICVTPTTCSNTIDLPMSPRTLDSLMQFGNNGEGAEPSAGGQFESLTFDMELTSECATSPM
row,Variant,effect of a mutation on the interaction
1,R361C,with no effect

# Variants of: B1
# Settings: with stk38_human STK38, Q15208
row,Variant,effect of a mutation on the interaction
1,R361C,with no effect

# Variants of: B1
# Settings: with ksyk_human SYK
row,Variant,effect of a mutation on the interaction
1,R361C,with no effect

# Variants of: B1
# Settings: with eloc_human ELOC
row,Variant,effect of a mutation on the interaction
1,R361C,with no effect

# Variants of: B1
# Settings: with tfe2_human TCF3, P15923
row,Variant,effect of a mutation on the interaction
1,R361C,with no effect

# Variants of: B1
# Settings: with tead1_human TEAD1, P28347
row,Variant,effect of a mutation on the interaction
1,R361C,with no effect

# Variants of: B1
# Settings: with tead2_human TEAD2, Q15562
row,Variant,effect of a mutation on the interaction
1,R361C,with no effect

# Variants of: B1
# Settings: with tead3_human TEAD3, Q99594
# Chain of tead3_human TEAD3, Q99594 (Q99594 whole entry): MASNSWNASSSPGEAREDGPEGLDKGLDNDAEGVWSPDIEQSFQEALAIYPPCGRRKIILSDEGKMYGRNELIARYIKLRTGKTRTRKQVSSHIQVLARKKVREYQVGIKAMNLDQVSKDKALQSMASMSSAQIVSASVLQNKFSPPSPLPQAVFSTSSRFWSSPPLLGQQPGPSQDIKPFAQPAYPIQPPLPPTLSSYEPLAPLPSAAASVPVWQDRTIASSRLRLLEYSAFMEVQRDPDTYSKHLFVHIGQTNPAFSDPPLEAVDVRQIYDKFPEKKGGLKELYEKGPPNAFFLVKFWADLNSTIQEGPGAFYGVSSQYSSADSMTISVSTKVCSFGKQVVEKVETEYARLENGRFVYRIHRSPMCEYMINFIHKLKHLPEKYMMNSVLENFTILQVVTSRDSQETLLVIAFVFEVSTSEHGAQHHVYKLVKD
row,Variant,effect of a mutation on the interaction
1,R361C,with no effect

# Variants of: B1
# Settings: with tgfr2_human TGFBR2, P37173
row,Variant,effect of a mutation on the interaction
1,R361C,with no effect

# Variants of: B1
# Settings: with tnr14_human TNFRSF14, Q92956
row,Variant,effect of a mutation on the interaction
1,R361C,with no effect

# Variants of: B1
# Settings: with tpx2_human TPX2, Q9ULW0
row,Variant,effect of a mutation on the interaction
1,R361C,with no effect

# Variants of: B1
# Settings: with trrap_human TRRAP
row,Variant,effect of a mutation on the interaction
1,R361C,with no effect

# Variants of: B1
# Settings: with tsc2_human TSC2, P49815
row,Variant,effect of a mutation on the interaction
1,R361C,with no effect

# Variants of: B1
# Settings: with tshr_human TSHR
row,Variant,effect of a mutation on the interaction
1,R361C,with no effect

# Variants of: B1
# Settings: with wt1_human WT1, P19544
row,Variant,effect of a mutation on the interaction
1,R361C,with no effect

# Variants of: B1
# Settings: with wwtr1_human WWTR1, Q9GZV5
row,Variant,effect of a mutation on the interaction
1,R361C,with no effect

# Variants of: B1
# Settings: with xpo1_human XPO1, O14980
row,Variant,effect of a mutation on the interaction
1,R361C,with no effect

# Variants of: B1
# Settings: with 1433b_human YWHAB
row,Variant,effect of a mutation on the interaction
1,R361C,with no effect

# Variants of: B1
# Settings: with 1433e_human YWHAE
row,Variant,effect of a mutation on the interaction
1,R361C,with no effect

# Variants of: B1
# Settings: with 1433z_human YWHAZ
row,Variant,effect of a mutation on the interaction
1,R361C,with no effect

# Variants of: B1
# Settings: with gata2_human GATA2, P23769
row,Variant,effect of a mutation on the interaction
1,R361C,decreasing interaction strength

# Variants of: B1
# Settings: with smad3_human SMAD3, P84022
# Remark: another data set of the same source
row,Variant,effect of a mutation on the interaction
1,R361C,decreasing interaction strength

# Variants of: B1
# Settings: with cdk6_human CDK6, Q00534
row,Variant,effect of a mutation on the interaction
1,R361C,decreasing interaction strength
